In article PMC7031403, “A molecular switch regulating transcriptional repression and activation of PPARγ” (Nature Communications, 2020):

Columns and labels:
[1] = system: full-length human PPARγ (isoform 2), wild type or mutant; set-up: method as in PMID 30409975; settings: cited from earlier work
[2] = system: full-length human PPARγ (isoform 2), wild type or mutant; assay: Luciferase transcriptional reporter assay, 3xPPRE-luciferase, HEK293T cells; type: cell-based; settings: WT; HEK293T
Protocol: HEK293T (ATCC CRL03216) were cultured in Dulbecco’s minimal essential medium (DMEM, Gibco) supplemented with 10% fetal bovine serum (FBS) and 50 units ml^−1 of penicillin, streptomycin, and glutamine. Cells were grown to 90% confluency in T-75 flasks; from this, 2 million cells were seeded in a 10-cm cell culture dish for transfection using X-tremegene 9 (Roche) and Opti-MEM (Gibco) with full-length human PPARγ (isoform 2) expression plasmid (4 μg), and a luciferase reporter plasmid containing the three copies of the PPAR-binding DNA response element (PPRE) sequence (3xPPRE-luciferase) (4 μg). After an 18-h incubation, cells were transferred to white 384-well cell culture plates (Thermo Fisher Scientific) at 10,000 cells/well in 20 μL total volume/well. After a 4 h incubation, cells were treated in quadruplicate with 20 μL of either vehicle control (1.5% DMSO in DMEM media), twofold serial dilution of TZDs for dose response experiments, or 5 μM ligand. After a final 18-h incubation, cells were harvested with 20 μL Britelite Plus (PerkinElmer), and luminescence was measured on a BioTek Synergy Neo multimode plate reader. Data were plotted in GraphPad Prism as luminescence vs. ligand concentration and fit to a sigmoidal dose response curve.

[3] = biological target: Gal4-PPARγ (human residues 185–477, hinge and LBD), wild type, P37231-2; assay: mammalian two-hybrid; settings: HEK293T cells, read off a plot
[4] = biological target: FITC-labeled human NCoR ID2 peptide (2256-2278); assay: fluorescence polarization; settings: read off a plot
[5] = biological target: FITC-labeled human NCoR ID2 peptide (2256-2278); assay: TR-FRET; settings: last point of the curve, highest T0070907 dose, about -4.7 log M; parent: est. 2.0; read off a plot
[6] = biological target: T1, 6xHis-PPARγ LBD (human peroxisome proliferator-activated receptor gamma ligand-binding domain, residues … (human, UniProt P37231-2 203-477)); assay: fluorescence polarisation; 6xHis-PPARγ LBD (apo) serially diluted and plated with FITC-labeled coregulator peptide (180 nM stated for the TRAP220 ID2 peptide); 20 mM potassium phosphate, 50 mM KCl, 5 mM TCEP, 0.5 mM EDTA, 0.01% Tween-20, pH 8; 25 °C, 1 h; fit to a one site - total binding equation; n=3; settings: both partners purified
T1 construct: TEV-cleavable N-terminal hexahistidine tag from pET46 Ek/LIC; the tag was not cleaved for protein used in fluorescence polarization; also called apo-PPARγ LBD; WT; source: E. coli BL21(DE3), purified (Ni-NTA, gel filtration); not shown: His6, N-terminal, kept
T1 sequence (looked up): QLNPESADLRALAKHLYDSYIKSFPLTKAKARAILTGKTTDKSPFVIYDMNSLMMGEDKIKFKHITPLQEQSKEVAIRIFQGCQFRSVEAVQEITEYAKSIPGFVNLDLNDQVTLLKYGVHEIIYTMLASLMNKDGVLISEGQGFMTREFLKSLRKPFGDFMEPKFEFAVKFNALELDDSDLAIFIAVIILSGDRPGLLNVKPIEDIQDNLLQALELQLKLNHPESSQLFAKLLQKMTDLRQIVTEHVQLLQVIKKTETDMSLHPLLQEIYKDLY

For `O=C(Nc1ccccc1)c1cc([N+](=O)[O-])ccc1Cl` [GW9662], the “pharmacological function on PPARγ transcription” value [1] is given as “transcriptionally neutral antagonist”.

In the case of `CN(CCOc1ccc(CC2SC(=O)NC2=O)cc1)c1ccccn1` (centres unmarked) [Rosiglitazone], the “effect on transcription of full-length PPARγ” value [2] is reported as “increases PPARγ transcription”.

Work on “VP16-NCoR RID (mouse NCoR receptor interaction domain, residues 1828–2471) …>… (panel label: NCoR RID ΔID2)” yielded a response (relative luciferase units) ([3]; DMSO, parent: est. 1.9e5) of 45000 and a response (relative luciferase units) ([3]; T0070907 (10 μM), parent: est. 2.8e5) of 60000.

Work on “6xHis-PPARγ LBD (wild type human PPARγ ligand-binding domain, residues 203–477) (from UniProt P37231-2) Y477del (printed label: L476*)” yielded a Kd ([4]; T0070907-bound, parent: est. -7.1) of -6.2 log M, a Kd ([4]; apo (DMSO), parent: est. -6.0) of -6.7 log M and a response (normalized TR-FRET ratio) [5] of 0.93.

B1: SRC1 ID2 peptide (peptide)
chain: CPSSHSSLTERHKILHRLLQEGSPS
modifications: The paper prints no limits; 676-700 is the conventional SRC-1 NR box 2 (ID2) peptide around LXXLL motif 4 (690-694). N-terminal FITC-Ahx and C-terminal amide are presumed by analogy with the other …
In the case of B1, the Kd [6] is reported as 41.1 µM.
